The record followed here is PMC3068998.

For the series the following is noted: glycan lost.

B1: SV2A: N498Q (protein)
parent chain: MEEGFRDRAAFIRGAKDIAKEVKKHAAKKVVKGLDRVQDEYSRRSYSRFEEEEDDDDFPAPADGYYRGEGAQDEEEGGASSDATEGHDEDDEIYEGEYQGIPRAESGGKGERMADGAPLAGVRGGLSDGEGPPGGRGEAQRRKDREELAQQYETILRECGHGRFQWTLYFVLGLALMADGVEVFVVGFVLPSAEKDMCLSDSNKGMLGLIVYLGMMVGAFLWGGLADRLGRRQCLLISLSVNSVFAFFSSFVQGYGTFLFCRLLSGVGIGGSIPIVFSYFSEFLAQEKRGEHLSWLCMFWMIGGVYAAAMAWAIIPHYGWSFQMGSAYQFHSWRVFVLVCAFPSVFAIGALTTQPESPRFFLENGKHDEAWMVLKQVHDTNMRAKGHPERVFSVTHIKTIHQEDELIEIQSDTGTWYQRWGVRALSLGGQVWGNFLSCFSPEYRRITLMMMGVWFTMSFSYYGLTVWFPDMIRHLQAVDYAARTKVFPGERVEHVTFNFTLENQIHRGGQYFNDKFIGLRLKSVSFEDSLFEECYFEDVTSSNTFFRNCTFINTVFYNTDLFEYKFVNSRLVNSTFLHNKEGCPLDVTGTGEGAYMVYFVSFLGTLAVLPGNIVSALLMDKIGRLRMLAGSSVLSCVSCFFLSFGNSESAMIALLCLFGGVSIASWNALDVLTVELYPSDKRTTAFGFLNALCKLAAVLGISIFTSFVGITKAAPILFASAALALGSSLALKLPETRGQVLQ
Take B1: the “other: toxin entry into neurons” value is given as “no change”.

B2: SV2A: N548Q (protein)
parent chain: MEEGFRDRAAFIRGAKDIAKEVKKHAAKKVVKGLDRVQDEYSRRSYSRFEEEEDDDDFPAPADGYYRGEGAQDEEEGGASSDATEGHDEDDEIYEGEYQGIPRAESGGKGERMADGAPLAGVRGGLSDGEGPPGGRGEAQRRKDREELAQQYETILRECGHGRFQWTLYFVLGLALMADGVEVFVVGFVLPSAEKDMCLSDSNKGMLGLIVYLGMMVGAFLWGGLADRLGRRQCLLISLSVNSVFAFFSSFVQGYGTFLFCRLLSGVGIGGSIPIVFSYFSEFLAQEKRGEHLSWLCMFWMIGGVYAAAMAWAIIPHYGWSFQMGSAYQFHSWRVFVLVCAFPSVFAIGALTTQPESPRFFLENGKHDEAWMVLKQVHDTNMRAKGHPERVFSVTHIKTIHQEDELIEIQSDTGTWYQRWGVRALSLGGQVWGNFLSCFSPEYRRITLMMMGVWFTMSFSYYGLTVWFPDMIRHLQAVDYAARTKVFPGERVEHVTFNFTLENQIHRGGQYFNDKFIGLRLKSVSFEDSLFEECYFEDVTSSNTFFRNCTFINTVFYNTDLFEYKFVNSRLVNSTFLHNKEGCPLDVTGTGEGAYMVYFVSFLGTLAVLPGNIVSALLMDKIGRLRMLAGSSVLSCVSCFFLSFGNSESAMIALLCLFGGVSIASWNALDVLTVELYPSDKRTTAFGFLNALCKLAAVLGISIFTSFVGITKAAPILFASAALALGSSLALKLPETRGQVLQ
With B2, the “other: toxin entry into neurons” value is listed as “no change”.
